Article PMC9482650, “Quantitative fragmentomics allow affinity mapping of interactomes” (Nature Communications, 2022)

T1: DFNB31_2, Q9P202
T1 sequence (Q9P202 274-371, limits assumed, looked up): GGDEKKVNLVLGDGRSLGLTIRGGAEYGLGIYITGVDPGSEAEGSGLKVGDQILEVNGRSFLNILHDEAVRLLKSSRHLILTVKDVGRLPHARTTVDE

T2: ARHGAP21, Q5T5U3
T2 sequence (Q5T5U3 45-169, limits assumed, looked up): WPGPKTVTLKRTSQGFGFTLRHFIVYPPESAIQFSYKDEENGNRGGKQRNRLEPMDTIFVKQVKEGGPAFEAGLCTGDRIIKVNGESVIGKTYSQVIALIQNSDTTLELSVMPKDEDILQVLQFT

T3: GRIP1_3, Q9Y3R0
T3 sequence (Q9Y3R0 247-346, limits assumed, looked up): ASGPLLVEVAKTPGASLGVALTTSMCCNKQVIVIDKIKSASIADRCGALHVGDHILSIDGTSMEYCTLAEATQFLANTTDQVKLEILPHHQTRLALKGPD

T4: MPP7, Q5T2T1
T4 sequence (Q5T2T1 134-230, limits assumed, looked up): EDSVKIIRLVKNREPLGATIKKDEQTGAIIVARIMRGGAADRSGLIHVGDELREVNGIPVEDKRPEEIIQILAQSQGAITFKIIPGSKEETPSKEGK

T5: LIN7B, Q9HAP6
T5 sequence (Q9HAP6 88-185, limits assumed, looked up): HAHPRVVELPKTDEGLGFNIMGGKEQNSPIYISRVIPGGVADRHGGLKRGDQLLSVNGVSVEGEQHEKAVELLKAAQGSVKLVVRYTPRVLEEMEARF

T6: PDZRN3_1, Q9UPQ7
T6 sequence (Q9UPQ7 244-349, limits assumed, looked up): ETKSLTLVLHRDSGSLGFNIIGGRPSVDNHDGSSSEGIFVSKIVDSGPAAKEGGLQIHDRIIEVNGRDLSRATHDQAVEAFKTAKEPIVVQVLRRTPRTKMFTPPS

T7: SNTG1, Q9NSN8
T7 sequence (Q9NSN8 52-150, limits assumed, looked up): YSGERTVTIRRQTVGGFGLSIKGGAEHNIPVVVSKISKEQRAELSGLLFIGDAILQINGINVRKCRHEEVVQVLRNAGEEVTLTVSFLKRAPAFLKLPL

T8: SYNJ2BP, P57105
T8 sequence (P57105 8-110, limits assumed, looked up): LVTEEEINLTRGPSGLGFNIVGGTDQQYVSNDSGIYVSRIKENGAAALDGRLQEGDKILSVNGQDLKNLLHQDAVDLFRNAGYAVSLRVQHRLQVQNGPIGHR

T9: NHERF3_1, Q5T2W1
T9 sequence (Q5T2W1 4-100, limits assumed, looked up): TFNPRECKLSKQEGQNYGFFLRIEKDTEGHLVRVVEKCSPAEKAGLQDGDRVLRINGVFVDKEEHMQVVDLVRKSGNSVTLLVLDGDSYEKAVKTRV

T10: HTRA4, P83105
T10 sequence (P83105 378-476, limits assumed, looked up): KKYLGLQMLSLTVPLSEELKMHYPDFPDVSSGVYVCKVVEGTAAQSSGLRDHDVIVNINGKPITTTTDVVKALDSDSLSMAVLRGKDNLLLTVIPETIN

T11: DLG3_2, Q92796
T11 sequence (Q92796 221-321, limits assumed, looked up): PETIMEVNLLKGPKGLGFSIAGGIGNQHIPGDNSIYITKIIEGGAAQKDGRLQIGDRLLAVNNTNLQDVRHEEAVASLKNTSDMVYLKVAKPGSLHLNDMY

T12: MPP6, Q9NZW5
T12 sequence (Q9NZW5 125-219, limits assumed, looked up): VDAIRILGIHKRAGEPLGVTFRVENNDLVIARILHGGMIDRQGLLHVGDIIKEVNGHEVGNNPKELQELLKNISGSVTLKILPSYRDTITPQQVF


Target: GRIP2_5, Q9C0E4
Sequence (Q9C0E4 544-642): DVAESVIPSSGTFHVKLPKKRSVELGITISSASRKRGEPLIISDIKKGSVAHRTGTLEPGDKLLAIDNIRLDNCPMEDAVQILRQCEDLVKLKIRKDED
Assay: holdup assay
Design: key: below the threshold = too weak to quantify, mostly under pKd 3.1 to 4
Conditions: plain residues with an end cap or a label only (N-terminal biotin on a linker: ado-ado)

| pKd | Binder |
| --- | --- |
| 3.58 | QYPGSPDSWV [PKP4, Q99569] |
| below the threshold | RPGFASESKV [ADRB1, P08588] |

Target: T1, DFNB31_2, Q9P202
Assay: holdup assay
Design: key: below the threshold = too weak to quantify, mostly under pKd 3.1 to 4
Conditions: plain residues with an end cap or a label only (N-terminal biotin on a linker: ado-ado)

| pKd | Binder |
| --- | --- |
| 3.62 | QYPGSPDSWV [PKP4, Q99569] |
| below the threshold | RPGFASESKV [ADRB1, P08588] |

Target: T2, ARHGAP21, Q5T5U3
Assay: holdup assay
Design: key: below the threshold = too weak to quantify, mostly under pKd 3.1 to 4
Conditions: plain residues with an end cap or a label only (N-terminal biotin on a linker: ado-ado)

| pKd | Binder |
| --- | --- |
| 3.56 | QYPGSPDSWV [PKP4, Q99569] |
| 3.98 | RPGFASESKV [ADRB1, P08588] |

Target: T3, GRIP1_3, Q9Y3R0
Assay: holdup assay
Design: key: below the threshold = too weak to quantify, mostly under pKd 3.1 to 4
Conditions: plain residues with an end cap or a label only (N-terminal biotin on a linker: ado-ado)

| pKd | Binder |
| --- | --- |
| below the threshold | QYPGSPDSWV [PKP4, Q99569] |
| below the threshold | RPGFASESKV [ADRB1, P08588] |

Target: T4, MPP7, Q5T2T1
Assay: holdup assay
Design: key: below the threshold = too weak to quantify, mostly under pKd 3.1 to 4
Conditions: plain residues with an end cap or a label only (N-terminal biotin on a linker: ado-ado)

| pKd | Binder |
| --- | --- |
| below the threshold | QYPGSPDSWV [PKP4, Q99569] |
| below the threshold | RPGFASESKV [ADRB1, P08588] |

Target: T5, LIN7B, Q9HAP6
Assay: holdup assay
Design: key: below the threshold = too weak to quantify, mostly under pKd 3.1 to 4
Conditions: plain residues with an end cap or a label only (N-terminal biotin on a linker: ado-ado)

| pKd | Binder |
| --- | --- |
| below the threshold | QYPGSPDSWV [PKP4, Q99569] |
| below the threshold | RPGFASESKV [ADRB1, P08588] |

Target: T6, PDZRN3_1, Q9UPQ7
Assay: holdup assay
Design: key: below the threshold = too weak to quantify, mostly under pKd 3.1 to 4
Conditions: plain residues with an end cap or a label only (N-terminal biotin on a linker: ado-ado)

| pKd | Binder |
| --- | --- |
| 3.77 | QYPGSPDSWV [PKP4, Q99569] |
| 3.92 | RPGFASESKV [ADRB1, P08588] |

Target: Inadl_2, Q8NI35
Sequence (Q8NI35 238-335): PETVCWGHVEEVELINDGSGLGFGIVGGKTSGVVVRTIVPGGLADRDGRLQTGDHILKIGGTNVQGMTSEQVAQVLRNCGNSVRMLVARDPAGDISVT
Assay: holdup assay
Design: key: below the threshold = too weak to quantify, mostly under pKd 3.1 to 4
Conditions: plain residues with an end cap or a label only (N-terminal biotin on a linker: ado-ado)

| pKd | Binder |
| --- | --- |
| below the threshold | QYPGSPDSWV [PKP4, Q99569] |
| below the threshold | RPGFASESKV [ADRB1, P08588] |

Target: PICK1, Q9NRD5
Sequence (Q9NRD5 17-115): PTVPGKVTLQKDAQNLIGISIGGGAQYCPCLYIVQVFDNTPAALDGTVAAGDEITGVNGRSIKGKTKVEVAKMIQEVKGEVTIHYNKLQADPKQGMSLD
Assay: holdup assay
Design: key: below the threshold = too weak to quantify, mostly under pKd 3.1 to 4
Conditions: plain residues with an end cap or a label only (N-terminal biotin on a linker: ado-ado)

| pKd | Binder |
| --- | --- |
| below the threshold | QYPGSPDSWV [PKP4, Q99569] |
| below the threshold | RPGFASESKV [ADRB1, P08588] |

Target: LDB3, O75112
Sequence (O75112 1-94): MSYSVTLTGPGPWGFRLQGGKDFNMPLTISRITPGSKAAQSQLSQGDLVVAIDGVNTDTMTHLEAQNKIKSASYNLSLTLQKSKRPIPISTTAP
Assay: holdup assay
Design: key: below the threshold = too weak to quantify, mostly under pKd 3.1 to 4
Conditions: plain residues with an end cap or a label only (N-terminal biotin on a linker: ado-ado)

| pKd | Binder |
| --- | --- |
| 3.82 | QYPGSPDSWV [PKP4, Q99569] |
| below the threshold | RPGFASESKV [ADRB1, P08588] |

Target: MAGI1_2, Q96QZ7
Sequence (Q96QZ7 456-580): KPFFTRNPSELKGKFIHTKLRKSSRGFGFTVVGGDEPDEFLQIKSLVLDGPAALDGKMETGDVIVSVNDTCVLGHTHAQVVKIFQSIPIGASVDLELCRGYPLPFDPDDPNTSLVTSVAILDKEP
Assay: holdup assay
Design: key: below the threshold = too weak to quantify, mostly under pKd 3.1 to 4
Conditions: plain residues with an end cap or a label only (N-terminal biotin on a linker: ado-ado)

| pKd | Binder |
| --- | --- |
| 3.48 | QYPGSPDSWV [PKP4, Q99569] |
| 3.88 | RPGFASESKV [ADRB1, P08588] |

Target: Inadl_10, Q8NI35
Sequence (Q8NI35 1673-1763): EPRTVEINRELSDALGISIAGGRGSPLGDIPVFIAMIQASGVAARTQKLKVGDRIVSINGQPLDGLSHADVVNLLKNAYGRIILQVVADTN
Assay: holdup assay
Design: key: below the threshold = too weak to quantify, mostly under pKd 3.1 to 4
Conditions: plain residues with an end cap or a label only (N-terminal biotin on a linker: ado-ado)

| pKd | Binder |
| --- | --- |
| 3.75 | QYPGSPDSWV [PKP4, Q99569] |
| below the threshold | RPGFASESKV [ADRB1, P08588] |

Target: Inadl_6, Q8NI35
Sequence (Q8NI35 1058-1167): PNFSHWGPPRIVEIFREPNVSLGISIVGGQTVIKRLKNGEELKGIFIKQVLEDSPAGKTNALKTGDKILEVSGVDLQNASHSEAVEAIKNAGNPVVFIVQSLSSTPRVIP
Assay: holdup assay
Design: key: below the threshold = too weak to quantify, mostly under pKd 3.1 to 4
Conditions: plain residues with an end cap or a label only (N-terminal biotin on a linker: ado-ado)

| pKd | Binder |
| --- | --- |
| 4.21 | QYPGSPDSWV [PKP4, Q99569] |
| below the threshold | RPGFASESKV [ADRB1, P08588] |

Target: MAGI2_5, Q86UL8
Sequence (Q86UL8 915-1017): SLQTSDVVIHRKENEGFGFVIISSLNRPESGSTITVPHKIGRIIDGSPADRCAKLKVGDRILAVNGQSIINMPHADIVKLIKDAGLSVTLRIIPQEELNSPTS
Assay: holdup assay
Design: key: below the threshold = too weak to quantify, mostly under pKd 3.1 to 4
Conditions: plain residues with an end cap or a label only (N-terminal biotin on a linker: ado-ado)

| pKd | Binder |
| --- | --- |
| below the threshold | QYPGSPDSWV [PKP4, Q99569] |
| below the threshold | RPGFASESKV [ADRB1, P08588] |

Target: T7, SNTG1, Q9NSN8
Assay: holdup assay
Design: key: below the threshold = too weak to quantify, mostly under pKd 3.1 to 4
Conditions: plain residues with an end cap or a label only (N-terminal biotin on a linker: ado-ado)

| pKd | Binder |
| --- | --- |
| 4.57 | QYPGSPDSWV [PKP4, Q99569] |
| 4.59 | RPGFASESKV [ADRB1, P08588] |

Target: GRIP2_7, Q9C0E4
Sequence (Q9C0E4 934-1023): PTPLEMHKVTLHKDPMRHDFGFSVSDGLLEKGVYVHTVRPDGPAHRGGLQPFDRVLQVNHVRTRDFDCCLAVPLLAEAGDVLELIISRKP
Assay: holdup assay
Design: key: below the threshold = too weak to quantify, mostly under pKd 3.1 to 4
Conditions: plain residues with an end cap or a label only (N-terminal biotin on a linker: ado-ado)

| pKd | Binder |
| --- | --- |
| 3.96 | QYPGSPDSWV [PKP4, Q99569] |
| below the threshold | RPGFASESKV [ADRB1, P08588] |

Target: T8, SYNJ2BP, P57105
Assay: holdup assay
Design: key: below the threshold = too weak to quantify, mostly under pKd 3.1 to 4
Conditions: plain residues with an end cap or a label only (N-terminal biotin on a linker: ado-ado)

| pKd | Binder |
| --- | --- |
| 4.94 | QYPGSPDSWV [PKP4, Q99569] |
| 4.64 | RPGFASESKV [ADRB1, P08588] |

Target: T9, NHERF3_1, Q5T2W1
Assay: holdup assay
Design: key: below the threshold = too weak to quantify, mostly under pKd 3.1 to 4
Conditions: plain residues with an end cap or a label only (N-terminal biotin on a linker: ado-ado)

| pKd | Binder |
| --- | --- |
| below the threshold | QYPGSPDSWV [PKP4, Q99569] |
| 4.36 | RPGFASESKV [ADRB1, P08588] |

Target: MAGI3_2, Q5TCQ9
Sequence (Q5TCQ9 398-503): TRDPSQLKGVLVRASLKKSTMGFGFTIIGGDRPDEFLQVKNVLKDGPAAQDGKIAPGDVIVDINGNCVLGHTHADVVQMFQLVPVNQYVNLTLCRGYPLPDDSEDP
Assay: holdup assay
Design: key: below the threshold = too weak to quantify, mostly under pKd 3.1 to 4
Conditions: plain residues with an end cap or a label only (N-terminal biotin on a linker: ado-ado)

| pKd | Binder |
| --- | --- |
| below the threshold | QYPGSPDSWV [PKP4, Q99569] |
| 5.13 | RPGFASESKV [ADRB1, P08588] |

Target: T10, HTRA4, P83105
Assay: holdup assay
Design: key: below the threshold = too weak to quantify, mostly under pKd 3.1 to 4
Conditions: plain residues with an end cap or a label only (N-terminal biotin on a linker: ado-ado)

| pKd | Binder |
| --- | --- |
| 3.48 | QYPGSPDSWV [PKP4, Q99569] |
| below the threshold | RPGFASESKV [ADRB1, P08588] |

Target: FRMPD2_3, Q68DX3
Sequence (Q68DX3 1073-1166): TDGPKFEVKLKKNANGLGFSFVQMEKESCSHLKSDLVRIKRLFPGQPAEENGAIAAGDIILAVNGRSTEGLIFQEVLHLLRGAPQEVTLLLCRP
Assay: holdup assay
Design: key: below the threshold = too weak to quantify, mostly under pKd 3.1 to 4
Conditions: plain residues with an end cap or a label only (N-terminal biotin on a linker: ado-ado)

| pKd | Binder |
| --- | --- |
| below the threshold | QYPGSPDSWV [PKP4, Q99569] |
| below the threshold | RPGFASESKV [ADRB1, P08588] |

Target: T11, DLG3_2, Q92796
Assay: holdup assay
Design: key: below the threshold = too weak to quantify, mostly under pKd 3.1 to 4
Conditions: plain residues with an end cap or a label only (N-terminal biotin on a linker: ado-ado)

| pKd | Binder |
| --- | --- |
| 4.13 | QYPGSPDSWV [PKP4, Q99569] |
| 3.61 | RPGFASESKV [ADRB1, P08588] |

Target: T12, MPP6, Q9NZW5
Assay: holdup assay
Design: key: below the threshold = too weak to quantify, mostly under pKd 3.1 to 4
Conditions: plain residues with an end cap or a label only (N-terminal biotin on a linker: ado-ado)

| pKd | Binder |
| --- | --- |
| below the threshold | QYPGSPDSWV [PKP4, Q99569] |
| below the threshold | RPGFASESKV [ADRB1, P08588] |

Target: GIPC2, Q8TF65
Sequence (Q8TF65 112-203): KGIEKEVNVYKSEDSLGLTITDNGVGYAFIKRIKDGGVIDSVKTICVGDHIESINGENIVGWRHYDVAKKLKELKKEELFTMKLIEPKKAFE
Assay: holdup assay
Design: key: below the threshold = too weak to quantify, mostly under pKd 3.1 to 4
Conditions: plain residues with an end cap or a label only (N-terminal biotin on a linker: ado-ado)

| pKd | Binder |
| --- | --- |
| 3.5 | QYPGSPDSWV [PKP4, Q99569] |
| below the threshold | RPGFASESKV [ADRB1, P08588] |
